Measured values as given in the DeepSol protein solubility set.

assay: soluble on expression in E. coli; label from the status in PepcDB or PDB records

Sequence	soluble on expression in E. coli
MQRIIKNNEVIDETWHLLPKDTTLDSLSNCDDLIVPLALWREHAHALKARDGGLGVWLDSDEEAEEIGEDVDQFQVIALNFPAFTDGRSFSNARLLRDRYGFKGELRAIGDVLRDQLFYMRRCGFDAFAVRADKDPYDALEGLKDFSVTYQAATDEPLPLFRRR	not soluble
MQSAELKQFVVDKIDDLKARDVVVIDVSNQSNITDYMVICSGTSKTHVKAIAENLVIEAKAAGIPPIGIEGRDSSEWVLVDMGNVILHVMQDQTRDFYQLEKLWSEKQA	soluble
MQSIKGNHLVKVYDYQEDGSVLLTCDAEAKNITWFKDGKMIGFLTEDKKKWNLGSNAKDPRGMYQCKGSQNKSKPLQVYYRMGSADDAKKDAAKKDDAKKDDAKKDGSDGNEEMGGITQTPYKVSISGTTVILTCPQYPGSEILWQHNDKNIGGDEDDKNIGSDEDHLSLKEFSELEQSGYYVCYPRGSKPEDANFYLYLRARV	soluble
MQSLSPTSRYLQALNEGTHQPDDVQKEAVDRLETLYQALTAKKSSATPPGGLIARLGKLLGKNEPDAQIPVRGLYMWGGVGRGKTWLMDLFYHSLPGERKLRLHFHRFMLRVHEELTALQGQIDPLDIIADRFKTETDVLCFDEFFVTDITDAMLLGGLMKALFARGITLVATSNIPPEELYRNGLQRARFLPAIDAIKQHCDIMNVDAGVDYRLRTLTQAHLWLTPLNDETRRQMDKLWLALAGAAREHAPTLEINHRPLSTLGVENQTLAVSFATLCVEARSQHDYIALSRLFHTVLLFDVPVMTPLMENEARRFIALVDEFYERHVKLVVSAAAPLYEIYQGERLKFEFQRCLSRLQEMQSAEYLKREHMPMAGDPLEHHHHHH	not soluble
MQSNKAFNLEKQNHTPRKHHQHHHQQHHQQQQQQQQQQPPPPIPANGQQASSQNEGLTIDLKNFRKPGEKTFTQRSRLFVGNLPPDITEEEMRKLFEKYGKAGEVFIHKDKGFGFIRLETRTLAEIAKVELDNMPLRGKQLRVRFACHSASLTVRNLPQYVSNELLEEAFSVFGQVERAVVIVDDRGRPSGKGIVEFSGKPAARKALDRCSEGSFLLTTFPRPVTVEPMDQLDDEEGLPEKLVIKNQQFHKEREQPPRFAQPGSFEYEYAMRWKALIEMEKQQQDQVDRNIKEAREKLEMEMEAARHEHQVMLMRQDLMRRQEELRRMEELHNQEVQKRKQLELRQEEERRRREEEMRRQQEEMMRRQQEGFKGTFPDAREQEIRMGQMAMGGAMGINNRGAMPPAPVPPGTPAPPGPATMMPDGTLGLTPPTTERFGQAATMEGIGAIGGTPPAFNRPAPGAEFAPNKRRRY	soluble
MQSSNGEHHQQKQTPYFMNAPCDPALLALAQQTFLGFQPQKNMYQHGFPPMLPHRNLIPSLAAAIPEMDKLMLEEPIEAGSMPYRRATNKNISVSDDSFNNMHRSSSSSQYRRHSAQWETMTDDERESVQRQKRKEEAFKTALCDAFKRSGSCPYGEACRFAHGENELRMPSQPRGKAHPKYKTQLCDKFSNFGQCPYGPRCQFIHKLKKGLPLSEYNRALQEGEISPARDDEITNPDESSSQVEDLSELHHRQHQQQQQYQQRYRRPPFNNFHDMSDSGYSAPRRRLHHQFEHLGSEQQQQQQQQTPAPKIVYPSMQVVNIEMATGDGPKRSDNHHYHHHHHQRRHIPAPPSTGPLSSLIDQADYEASMASGKMFGKPENIRTYGAMIRANEEHVERNQTGVVKKERATVLPKRDLSLIREEDTLLVDGSHLNMTSSAILPAHQIPSTTTTSTSSPVQEQPWYEKIFGKMTMIQEESSMGGEDDDAHEDHYSR	not soluble
MQSTPKPFDIEQPSLRVFLPAPELATGRAVVACPGGGYSGLAVNHEGYDWAPYFNKQGIALIVLKYRMPKGDRTLPISDAEAAMKMVRDSADVWNLNPNDIGIMGSSAGGHLASTIATHAPEALRPNFQILFYPVITMDKSFTHMGSHDNLLGKDASADLEKEFSNEKQVTKETPRAFIVYSDDDKVVPPANGVNYYLALNKKGVPSVLHIYPTGGHGWGIREDFLEHHHHHH	not soluble
MQTDIHDEPVNLGFGVQFEPDDLYRLRSQFLPLGKIGGKPSWLNPKNLPKSADLLCNVCEKPLCFLMQVSANGGINDPPHAFHRSLFLFVCRNPSCSRTNDAANLKAFRCQLPRANDYYSFDGPMDPDLDGDVADPRAPADGPGLCRICGCSAAKKCAKCQVARYCSQAHQVIDWPAHKLECAKAATDGSITDEPKNPRNAFCFKEFGVEIDQEYMPANLFDGLSDDEGDEEEEEGNDEDETEEEKKARIREFEKFVKENKGKNADMTKEDLDEATAEQPKDIDFDKFNRLVNLQPDQIIRYKRYGQPLRATGLSELPEVVEPCELCGAPRRFEMQLMPHLLSLIDVDAIGQSIDWASVYVYTCSASCQIADDGYAKEFVAKQDFL	not soluble
MQTFQADLAIVGAGGAGLRAAIAAAQANPNAKIALISKVYPMRSHTVAAEGGSAAVAQDHDSFEYHFHDTVAGGDWLCEQDVVDYFVHHCPTEMTQLELWGCPWSRRPDGSVNVRRFGGMKIERTWFAADKTGFHMLHTLFQTSLQFPQIQRFDEHFVLDILVDDGHVRGLVAMNMMEGTLVQIRANAVVMATGGAGRVYRYNTNGGIVTGDGMGMALSHGVPLRDMEFVQYHPAGLPGSGILMTEGCRGEGGILVNKNGYRYLQDYGMGPETPLGEPKNKYMELGPRDKVSQAFWHEWRKGNTISTPRGDVVYLDLRHLGEKKLHERLPFICELAKAYVGVDPVKEPIPVRPTAHYTMGGIETDQNCETRIKGLFAVGECSSVGLHGANRLGSNSLAELVVFGRLAGEQATERAATAGNGNEAAIEAQAAGVEQRLKDLVNQDGGENWAKIRDEMGLAMEEGCGIYRTPELMQKTIDKLAELQERFKRVRITDTSSVFNTDLLYTIELGHGLNVAECMAHSAMARKESRGAHQRLDEGCTERDDVNFLKHTLAFRDADGTTRLEYSDVKITTLPPAKRVYGGEADAADKAEAANKKEKANG	soluble
MQTGNGEYHMGNTMTKAIYEKFKSATPYGNTVATGAIPTETVDIAVNVGGFKVGDQNYPINPKVTFTNNTGQDIPGGTEFQFDIPVSAPDNAKDQSGGGLQVIASGHTRPNNIGGLDGTMHRVAFTLPAWKALPAGGVYELDMVYYLPISGPANYTVNINNVDYAFKFEQPDLPLADLSSLEHHHHHH	soluble
MQTKEKLASLSYLAVKSLLYELNLTPKPGLVDCHNNGAHNDMDFYTFLDSILSLSPFFKKYIEVGWLYHNESPQYLFNQLRKLGIEAEAAMFSATERVNTHKGINFSFALLLGATGSYLAKHIELIQEKRRFMPQDSLTICHLAGEMSMHLIQNDLSHVETKRNLTYGEKLFLQYGLKGLRGEASQGYPSLTQKALPFFRNELLKKQDIQISQLKLLLYLMTFIEDSNIIHRGGIKSWKKVQQEAQTLLEKDLPPYQLKEQLNSYNQILTDRHLSPGGAADLLSLTLYFSFLEQLI	not soluble
MQVDADLRPILGPQLVRLDPMRVKQLQDPIVYEAIDNLAKLSAHCLQLRTPLTTCEKLINSDSTLYLSWKYDEEEKVSRLMGFAKVGRKKLFLYDSQMQTYEGEILCLLDFYVHFSCQRQGVGQQILDYMFSQEHTEPYQLALDNPSVTLLGFMSQKYGLIKPVWQNTNFVVFEELFLALSAENGIEKPPPDGWRRPMTPRRLGTGMTDTRWLQHAVSGHQSKGNAMAAPVDADMTPQGALSNRAHQAKARKAHILSSKPLW	soluble
MRAERRKQLFRLLGDLPDRRPISVETLRIEEREENIVETLLLDLNGHEKAPAYFVKPKKTEGPCPAVLFQHSHGGQYDRGKSELIEGADYLKTPSFSDELTSLGYGVLAIDHWGFGDRRGKAESEIFKEMLLTGKVMWGMMIYDSLSALDYMQSRSDVQPDRIGTIGMSMGGLMAWWTAALDDRIKVCVDLCSQVDHHVLIKTQNLDRHGFYYYVPSLAKHFSASEIQSLIAPRPHLSLVGVHDRLTPAEGVDKIEKELTAVYAGQGAADCYRVVRSASGHFETAVIRHEAVRFLQKWLLEHHHHHH	not soluble
MRAIVLLSVLISCYLVIAEDYYELLGVERDADDRTIRKAFKKLAIKKHPDRNTDDPNAHDEFVKINKAYEVLKDENLRKKYDQFGEKGLEDGFQGGNNYQSWQFYNDNFGIYDDDQEIVTLNRADFQRMVSDSNEIWFINFYSTYCSHCHQLAPTWRKFAREIEGTIRVGAVNCAEDPQLCQSQRVNAYPSLVFYPTGEFYQGHRDVELMVDFAIQRLKSEVLHLNSENWKALSEDWEPYNRLPWVVDMCGGDHIDCLSSTTRRKLSSMLDGLANVATIDCNAEEALCSKFNPITSGVMWFPARKLVKKSQINIESMDAQEISKSVIQYLDELEDISVESLQRLLEGNDPDEPIAVWMLANDAQSTERKDFRRLPALVTTQIFKFDCSKSSEICDELLDKTKLPQFMVFKTTGGYEIDYAGSKDFHAASTFIREASKSHIHVLNRDSYEYAISGGEFYIIDYFAPWCPPCMKLLGEYRRFHTATSEDSMLHTVAIGSLDCVKYKDLCQQAGVQSYPTSIVYTPDGKTHKMVGYHNVDYILEFLDNSLNPSVMEMSPEQFEELVMNRKDEETWLVDFFAPWCGPCQQLAPELQKAARQIAAFDENAHVASIDCQKYAQFCTNTQINSYPTVRMYPAKKTKQPRRSPFYDYPNHMWRNSDSIQRWVYNFLPTEVVSLGNDFHTTVLDSSEPWIVDFFAPWCGHCIQFAPIYDQIAKELAGKVNFAKIDCDQWPGVCQGAQVRAYPTIRLYTGKTGWSRQGDQGIGIGTQHKEQFIQIVRQQLKLDEHDEL	not soluble
MRAMYDLLKQKADVWDLFTRKKEYQPSKLDEHGRFFFTEEDLKNASSPEVSRYLVENGLKVEFPENKTFAVCLTHDMDDIYPPFSHSLLSSVSCLKSLDFRGLTAPFLWRFKGPEYSPYLNFSDIMDLEEGFGAKSSFYFLASREDPVRFRYDIEDLENLLGDISDRGWEAGLHGGYYSYDNLEALNNEKKSLEKVLGKKVLGFRNHYLRFKTPETWELLADAGFGYDSTFGYSELAGFRNGMCHPFKPYNLNKEREINILEIPLTVMDVALFKASSSFEEAWRCTKDLIDTAAGLNGVITLLWHNFVFGCSFRKDWIKLYEKALQYCSEKGAWITSGEEIYRWWENGAMAGDPLEHHHHHH	soluble
MRAWPIHLHVGSIERSSALLVGGCNVVYGLSSHEKSNVGFGEVGSQSWIAQNRVLLFDPDGIDMPVDDRDMHVLQTRQQAPIDTRIAFQGLGVNSMQQNAGVFVGDAQITGWDQHQKSNKASGDIGGDHNVEIAGLHVNYDADGMDGVFLDSDHKAGTFVRQG	not soluble
MRCVGVGNRDFVEGVSGGAWVDLVLEHGGCVTTMAQGKPTLDFELTKTTAKEVALLRTYCIEASISNITTATRCPTQGEPYLKEEQDQQYICRRDVVDRGWGNGCGLFGKGGVVTCAKFSCSGKITGNLVQIENLEYTVVVTVHNGDTHAVGNDTSNHGVTATITPRSPSVEVKLPDYGELTLDCEPRSGIDFNEMILMKMKKKTWLVHKQWFLDLPLPWTAGADTSEVHWNYKERMVTFKVPHAKRQDVTVLGSQEGAMHSALAGATEVDSGDGNHMFAGHLKCKVRMEKLRIKGMSYTMCPGKFSIDKEMAETQHGTTVVKVKYEGAGAPCKVPIEIRDVNKEKVVGRIISSTPLAENTNSATNIELEPPFGDSYIVIGVGNSALTLHWFRKGSSIGKSLEHHHHHHHH	not soluble
MRDIDGGTMGYRVGVDIGGSFTDFAVFDEDNGEIKSLKVFSRPDQPGEEVIAGVRMLGERYGIQPEQITYFTHGTTVGINTVIQRKGLKLALFTTENFSDVLELARLKTPDMYHLLSRRPAPLVKRSMVFGIAERMGPDGTVRAPLDEASVERAVRQALDAGAEGIVVSLLHAYRNPAHELRVREIAEALA	not soluble
